Measurements reported in patent publication US10415067B2, “Method for the enzymatic production of D-erythrose and acetyl phosphate” (SCIENTIST OF FORTUNE S.A., priority 2014, dated 2019).

Legend:
[1] = target: T1, Bifidobacterium pseudolongum subsp. globosum phosphoketolase, Uniprot Q6R2Q6, SEQ ID NO: 1 (Bifidobacterium pseudolongum, UniProt Q6R2Q6); assay: Kinetics of acetyl phosphate formation from D-fructose (hydroxamate-based colorimetric assay); type: biochemical; conditions: D-fructose 0-500 mM, 50 mM sodium phosphate, pH 7.5, 37° C., 3 mg/ml enzyme
T1 sequence (Q6R2Q6 1-825): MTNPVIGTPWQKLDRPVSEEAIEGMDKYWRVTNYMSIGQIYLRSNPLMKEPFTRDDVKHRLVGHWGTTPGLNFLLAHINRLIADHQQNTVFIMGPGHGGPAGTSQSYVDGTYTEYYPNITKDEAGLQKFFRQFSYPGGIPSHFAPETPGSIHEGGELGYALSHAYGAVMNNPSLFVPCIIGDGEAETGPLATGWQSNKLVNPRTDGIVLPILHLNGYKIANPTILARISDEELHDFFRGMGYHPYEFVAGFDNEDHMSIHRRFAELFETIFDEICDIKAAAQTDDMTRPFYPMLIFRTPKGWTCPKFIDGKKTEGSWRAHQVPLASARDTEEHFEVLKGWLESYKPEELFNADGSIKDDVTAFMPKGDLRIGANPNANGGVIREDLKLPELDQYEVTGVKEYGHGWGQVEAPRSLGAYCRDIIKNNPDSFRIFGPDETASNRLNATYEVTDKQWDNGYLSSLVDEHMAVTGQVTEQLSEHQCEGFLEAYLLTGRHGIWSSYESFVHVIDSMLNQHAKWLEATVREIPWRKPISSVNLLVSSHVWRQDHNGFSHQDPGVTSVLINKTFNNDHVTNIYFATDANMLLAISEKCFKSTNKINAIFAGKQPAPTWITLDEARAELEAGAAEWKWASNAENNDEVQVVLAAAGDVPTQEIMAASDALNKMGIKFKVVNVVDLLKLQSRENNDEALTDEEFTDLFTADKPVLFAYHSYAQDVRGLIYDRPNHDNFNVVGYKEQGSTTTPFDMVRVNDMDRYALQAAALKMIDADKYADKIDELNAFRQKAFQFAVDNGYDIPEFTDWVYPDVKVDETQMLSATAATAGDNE
Excerpt: (§1) The sequences of phosphoketolases inferred from the genomes of prokaryotic organisms were generated by oligonucleotide concatenation to fit the codon usage of E. coli (genes were commercially synthesized by GeneArt®). A stretch of 6 histidine codons was inserted after the methionine initiation codon to provide an affinity tag for purification. The genes thus synthesized were cloned in a modified pUC18 expression vector (New England Biolabs) containing a modified Multiple Cloning Sites (MCS). The genes of interest were cloned at PacI and NotI restriction sites. Competent MG1655 E. coli cells were transformed with these vectors using standard heat shock procedure. The transformed cells were grown in LB-ampicillin medium for 24 h at 30° C., 160 rpm shaking.
(§2) The pellets from 200 ml of cultured cells were thawed on ice and resuspended in 3 ml of 50 mM Tris-HCl pH 7.5 containing 300 mM NaCl, 5 mM MgCl2, 1 mM DTT and 10 mM Imidazole. 10 μl of lysonase (Merck) was added. […] Protein concentrations were quantified by direct UV 280 nm measurement on the NanoDrop 1000 spectrophotometer (Thermo Scientific). […]
(§3) The composition of enzymatic reactions was identical to that described above. Kinetic parameters were determined using a range of D-fructose concentrations (0-500 mM) and a constant concentration of sodium phosphate (50 mM). […]

[2] = target: Lactococcus lactis subsp. lactis (strain KF147) phosphoketolase, Uniprot A9QST6, SEQ ID NO: 3 (Lactococcus lactis, UniProt Q9CFH4); assay: as above; type: biochemical; conditions: D-fructose 0-500 mM, 50 mM sodium phosphate, pH 7.5, 37° C., 3 mg/ml enzyme
Excerpt: as §1, §2, §3

[3] = substrate: O=CCO; assay: Kinetics of acetyl phosphate formation from glycolaldehyde (hydroxamate-based colorimetric assay); type: biochemical, Lactococcus lactis subsp. lactis (strain KF147); conditions: other: glycolaldehyde 0-100 mM, 50 mM sodium phosphate, pH 7.5, 37° C., 3 mg/ml enzyme
Excerpt: as §1, §2
(§4) 0.1 ml of hydroxylamine hydrochloride (2 M, pH 6.5) was added to 0.1 ml of reaction mixture. […] The samples were further clarified by centrifugation and the absorbance of ferric acetyl-hydroxamate complex was measured at 505 nm. […]

[4] = substrate: O=CCO; assay: as above; type: biochemical, Clostridium acetobutylicum (strain ATCC 824); conditions: other: glycolaldehyde 0-100 mM, 50 mM sodium phosphate, pH 7.5, 37° C., 3 mg/ml enzyme
Excerpt: as §1, §2, §4

[5] = substrate: O=CCO; assay: as above; type: biochemical, Bifidobacterium pseudolongum subsp. globosum; conditions: other: glycolaldehyde 0-100 mM, 50 mM sodium phosphate, pH 7.5, 37° C., 3 mg/ml enzyme
Excerpt: as §1, §2, §4

OCC1(O)OC[C@@H](O)[C@@H](O)[C@@H]1O (stereo partly drawn) [D-fructose]
kcat [1]: 0.10 ± 0.02 s⁻¹ | kcat [2]: 0.11 ± 0.04 s⁻¹

B1: Lactococcus lactis subsp. lactis (strain KF147) phosphoketolase, Uniprot A9QST6, SEQ ID NO: 3 (Lactococcus lactis subsp. lactis Il1403) (protein)
chain: MTEYNSEAYLKKLDKWWRAATYLGAGMIFLKENPLFSVTGTPIKAENLKANPIGHWGTVSGQTFLYAHANRLINKYNQKMFYMGGPGHGGQAMVVPSYLDGSYTEAYPEITQDLEGMSRLFKRFSFPGGIGSHMTAQTPGSLHEGGELGYVLSHATGAILDQPEQIAFAVVGDGEAETGPLMTSWHSIKFINPKNDGAILPILDLNGFKISNPTLFARTSDVDIRKFFEGLGYSPRYIENDDIHDYMAYHKLAAEVFDKAIEDIHQIQKDAREDNRYQNGEIPAWPIVIARLPKGWGGPRYNDWSGPKFDGKGMPIEHSFRAHQVPLPLSSKNMGTLPEFVKWMTSYQPETLFNADGSLKEELRDFAPKGEMRMASNPVTNGGVDYSNLVLPDWQEFANPISENNRGKLLPDTNDNMDMNVLSKYFAEIVKLNPTRFRLFGPDETMSNRFWEMFKVTNRQWMQVIKNPNDEFISPEGRIIDSQLSEHQAEGWLEGYTLTGRTGVFASYESFLRVVDSMLTQHFKWIRQAADQKWRHDYPSLNVISTSTVFQQDHNGYTHQDPGMLTHLAEKKSDFIRQYLPADGNTLLAVFDRAFQDRSKINHIVASKQPRQQWFTKEEAEKLATDGIATIDWASTAKDGEAVDLVFASAGAEPTIETLAALHLVNEVFPQAKFRYVNVVELGRLQKKKGALNQERELSDEEFEKYFGPSGTPVIFGFHGYEDLIESIFYQRGHDGLIVHGYREDGDITTTYDMRVYSELDRFHQAIDAMQVLYVNRKVNQGLAKAFIDRMERTLVKHFEVTRNEGVDIPEFTEWVWSDLKK
Km [3]: ≈25 mM mM | kcat [3]: 0.05 s⁻¹

B2: Clostridium acetobutylicum (strain ATCC 824) phosphoketolase, Uniprot Q97JE3, SEQ ID NO: 2 (Clostridium acetobutylicum ATCC 824) (protein)
chain: MQSIIGKHKDEGKITPEYLKKIDAYWRAANFISVGQLYLLDNPLLREPLKPEHLKRKVVGHWGTIPGQNFIYAHLNRVIKKYDLDMIYVSGPGHGGQVMVSNSYLDGTYSEVYPNVSRDLNGLKKLCKQFSFPGGISSHMAPETPGSINEGGELGYSLAHSFGAVFDNPDLITACVVGDGEAETGPLATSWQANKFLNPVTDGAVLPILHLNGYKISNPTVLSRIPKDELEKFFEGNGWKPYFVEGEDPETMHKLMAETLDIVTEEILNIQKNARENNDCSRPKWPMIVLRTPKGWTGPKFVDGVPNEGSFRAHQVPLAVDRYHTENLDQLEEWLKSYKPEELFDENYRLIPELEELTPKGNKRMAANLHANGGLLLRELRTPDFRDYAVDVPTPGSTVKQDMIELGKYVRDVVKLNEDTRNFRIFGPDETMSNRLWAVFEGTKRQWLSEIKEPNDEFLSNDGRIVDSMLSEHLCEGWLEGYLLTGRHGFFASYEAFLRIVDSMITQHGKWLKVTSQLPWRKDIASLNLIATSNVWQQDHNGYTHQDPGLLGHIVDKKPEIVRAYLPADANTLLAVFDKCLHTKHKINLLVTSKHPRQQWLTMDQAVKHVEQGISIWDWASNDKGQEPDVVIASCGDTPTLEALAAVTILHEHLPELKVRFVNVVDMMKLLPENEHPHGLSDKDYNALFTTDKPVIFAFHGFAHLINQLTYHRENRNLHVHGYMEEGTITTPFDMRVQNKLDRFNLVKDVVENLPQLGNRGAHLVQLMNDKLVEHNQYIREVGEDLPEITNWQWHV
Km [4]: ≈30 mM mM | kcat [4]: 0.08 s⁻¹

B3: Bifidobacterium pseudolongum subsp. globosum phosphoketolase, Uniprot Q6R2Q6, SEQ ID NO: 1 (Bifidobacterium pseudolongum subsp. globosum) (protein)
chain: MTNPVIGTPWQKLDRPVSEEAIEGMDKYWRVTNYMSIGQIYLRSNPLMKEPFTRDDVKHRLVGHWGTTPGLNFLLAHINRLIADHQQNTVFIMGPGHGGPAGTSQSYVDGTYTEYYPNITKDEAGLQKFFRQFSYPGGIPSHFAPETPGSIHEGGELGYALSHAYGAVMNNPSLFVPCIIGDGEAETGPLATGWQSNKLVNPRTDGIVLPILHLNGYKIANPTILARISDEELHDFFRGMGYHPYEFVAGFDNEDHMSIHRRFAELFETIFDEICDIKAAAQTDDMTRPFYPMLIFRTPKGWTCPKFIDGKKTEGSWRAHQVPLASARDTEEHFEVLKGWLESYKPEELFNADGSIKDDVTAFMPKGDLRIGANPNANGGVIREDLKLPELDQYEVTGVKEYGHGWGQVEAPRSLGAYCRDIIKNNPDSFRIFGPDETASNRLNATYEVTDKQWDNGYLSSLVDEHMAVTGQVTEQLSEHQCEGFLEAYLLTGRHGIWSSYESFVHVIDSMLNQHAKWLEATVREIPWRKPISSVNLLVSSHVWRQDHNGFSHQDPGVTSVLINKTFNNDHVTNIYFATDANMLLAISEKCFKSTNKINAIFAGKQPAPTWITLDEARAELEAGAAEWKWASNAENNDEVQVVLAAAGDVPTQEIMAASDALNKMGIKFKVVNVVDLLKLQSRENNDEALTDEEFTDLFTADKPVLFAYHSYAQDVRGLIYDRPNHDNFNVVGYKEQGSTTTPFDMVRVNDMDRYALQAAALKMIDADKYADKIDELNAFRQKAFQFAVDNGYDIPEFTDWVYPDVKVDETQMLSATAATAGDNE
Km [5]: ≈20 mM mM | kcat [5]: 0.07 s⁻¹
